# B1: soluble CD8αα receptor (residues 1-120 of the mature human CD8α protein, expressed in E. coli and refolded as a homodimer) (receptor)
# chain: not shown
# notes: also called sCD8αα; CD8 A
# What was measured:
# [1] = molecular target: HLA-A2-flu (biotinylated HLA-A2 plus Influenza matrix protein 58-66, immobilised on streptavidin) (human; Influenza); test: SPR (BIAcore) equilibrium binding, immobilised HLA-A2-flu, 37 °C, mean ± range
# [2] = molecular target: HLA-A2-pol (biotinylated HLA-A2 plus HIV-1 polymerase 476-484, immobilised on streptavidin) (human; HIV-1)
binder,measurement,setting,value
B1,Kd,[1],629 µM
same,koff,[2],18 s⁻¹
same,kon,[2],≥ 140000 M⁻¹ s⁻¹
